Data on 8 molecules can be found in patent publication US20160046721A1 (BEIJING SHENOGEN PHARMA GROUP, published 2016).

Numbering of substitutions follows the chain as printed. Names and notes keep the numbering of the source. Values joined by “and” are separate entries in the source; they are usually repeats but may differ in a detail not shown here. Equal entries are not always repeated.

As usually defined, the Kd is a measure of binding affinity in units of concentration. As a reminder, the koff is a measure of how fast the partners let go of each other. A higher koff goes with fast dissociation. In general, kon refers to the second-order rate constant of association. As usually defined, the EC50 (read off the curve) is the midpoint of the concentration-response curve.

In test [1] the target is T1, biotinylated GV27 peptide (human, biotinylated (site not stated)).
T1 construct: also called antigen (biotinylated GV27 peptide)
T1 peptide: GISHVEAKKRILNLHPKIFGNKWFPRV
Kind of test: competition ELISA: plate coated with SNGhB1 (1 µg/ml), biotinylated GV27 added together with the soluble antibody, streptavidin-HRP; the sheet labels the soluble antibody SNGhB1, the legend paragraph 64 and paragraph 314 to paragraph 316 name SNGmB1. Here is the method:
(§1) The antigen (biotinylated GV27 peptide) was added along with different amount of the competing mouse antibody, the ELISA plates were then allowed to incubate for equilibrium before wash. Streptavidin-HRP (Sigma, S2438, 1:5000) and TMB substrate (Biopanda, China) were added and OD450 was measured on a plate reader. IgG were tested in parallel as control antibody.

The target of test [2] is T2, GV27 peptide (ER-α36 c-terminal 27 aa) (human).
T2 construct: also called 27 aa peptide (F domain); 27-amino acid peptide derived from the F domain of ER-α36
T2 peptide: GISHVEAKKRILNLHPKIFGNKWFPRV
The test is described as follows: Biacore; table head says human ER-α36, analyte taken as the GV27 peptide of Example 5.

The target in test [3] is T2, GV27 peptide (ER-α36 c-terminal 27 aa). Kind of test: ELISA on the coated 27-aa peptide, antibody in 5-fold dilutions from 10 ug/ml.
The target is the same in test [4]. The test is described as above.
Test [5] has as its target T3, Fc-LBD-D27 (Fc-LBD with the C-terminal 27 amino acids deleted) (human, UniProt P03372 339-456).
T3 construct: also called Fc-LBD with 27 amino acids deleted; not shown: Fc
T3 chain: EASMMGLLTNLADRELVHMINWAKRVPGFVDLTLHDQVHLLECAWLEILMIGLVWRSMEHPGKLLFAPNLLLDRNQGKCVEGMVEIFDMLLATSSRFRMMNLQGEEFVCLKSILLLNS
The test is described as follows: ELISA, plate coated with Fc-LBD-D27 at 1 ug/ml, HRP anti-mouse IgG Fc. Here is the method: (§2) Five different proteins were used to coat the assay plate at 1 μg/ml.
For orientation: In an ELISA, binding on a coated surface is turned into a signal by an enzyme label.

Test [6] concerns the target T2, GV27 peptide (ER-α36 c-terminal 27 aa). The test is described as follows: Biacore, antibody captured on anti-mouse Fc, GV27 injected. A general note: SPR reads the build-up and loss of mass on a sensor chip optically.
Test [7] concerns the target T1, biotinylated GV27 peptide. The test is described as follows: competition ELISA: plate coated with hybridoma SNGmB1 (1 µg/ml), biotinylated GV27 added together with soluble SNGmB1, streptavidin-HRP. Here is the method: as §1
The target of test [8] is T1, biotinylated GV27 peptide. Kind of test: competition ELISA: plate coated with humanized SNGmB1 ('hzdSNGmB1', 1 µg/ml), biotinylated GV27 added together with soluble SNGmB1, streptavidin-HRP. Here is the method:
as §1

The target of test [9] is T2, GV27 peptide (ER-α36 c-terminal 27 aa). Kind of test: ELISA, plate coated with the 27-aa peptide at 1 ug/ml, SNGmB1 in 5-fold dilutions from 10 ug/ml, HRP anti-mouse IgG Fc. Here is the method:
as §2

In test [10] the target is T4, Fc-ER66 (fusion protein of Fc and ER-α66 ligand binding domain) (human, UniProt P03372 302-595, limits assumed).
T4 construct: also called Fc-ER-α66 protein; not shown: Fc
T4 sequence (looked up): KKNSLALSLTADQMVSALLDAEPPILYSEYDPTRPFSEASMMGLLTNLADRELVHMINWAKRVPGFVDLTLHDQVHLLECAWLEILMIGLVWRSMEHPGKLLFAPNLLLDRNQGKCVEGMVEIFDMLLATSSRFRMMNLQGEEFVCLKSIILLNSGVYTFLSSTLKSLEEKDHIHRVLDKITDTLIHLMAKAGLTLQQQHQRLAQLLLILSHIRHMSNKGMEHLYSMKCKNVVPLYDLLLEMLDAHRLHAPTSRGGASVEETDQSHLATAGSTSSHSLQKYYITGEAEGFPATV
The test is described as follows: ELISA, plate coated with Fc-ER66 at 1 ug/ml, HRP anti-mouse IgG Fc. Here is the method: as §2

For test [11], the target named is T5, Fc-LBD (fusion protein of Fc and ER-α36 ligand binding domain including the C-terminal 27 amino acids) (human).
T5 construct: Expressed in E. coli BL21 (DE3); No linker is described; also called Fc-ER-α36 LBD; not shown: Fc fused to the N terminal of the LBD
T5 chain: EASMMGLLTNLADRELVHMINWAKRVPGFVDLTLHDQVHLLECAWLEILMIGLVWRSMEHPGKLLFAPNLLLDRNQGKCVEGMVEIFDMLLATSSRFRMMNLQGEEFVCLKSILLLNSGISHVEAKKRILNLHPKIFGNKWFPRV
The test is described as follows: ELISA, plate coated with Fc-LBD at 1 ug/ml, SNGmB1 in 5-fold dilutions from 10 ug/ml, HRP anti-mouse IgG Fc. Here is the method: as §2

B1: SNGhB1 chimeric antibody (antibody, human IgG1, kappa)
light: ETTVTQSPASLSMTIGEKVTIRCITSTDIDDDMNWYRKKPGQPPKLLISEGNTLRPGVPSRFSSSGYGTDFVFTIENMLSEDVADYYCLQSDNLPLTFGAGTKLELKRTVAAPSVFIFPPSDEQLKSGTASVVCLLNNFYPREAKVQWKVDNALQSGNSQESVTEQDSKDSTYSLSSTLTLSKADYEKHKVYACEVTHQGLSSPVTKSFNRGEC
heavy: not shown
notes: Chimeric antibody: mouse V regions with human kappa and IgG1 constant regions; also called chimeric SNGmB1; SNGhB1(20111118)
B1: the “IC50 (read off the curve)” value in test [1] is ~0.5 µg/mL. Besides, in test [2], the Kd was 163 pM, the off-rate constant (koff) worked out at 0.000283 s⁻¹ and the kon was 1.74e+06 M⁻¹ s⁻¹.

B2: SNGHZD (C1L + C5H) (antibody, human IgG1, kappa, V domains shown)
VH: QVQLVQSGAEVKKPGASVKVSCKASGYTFTSHNMHWVRQAPGQGLEWIGAIHPVNGDTAYNQKFKGKATLTVDKSTSTAYLELSSLRSEDTAVYYCAREGYGSVDYWGQGTLVTVSS
VL: ETTVTQSPAFMSATPGDKVNISCITSTDIDDDMNWYQQKPGEAPILIISEGNTLRPGIPPRFSSSGYGTDFTLTINNIESEDAAYYFCLQSDNLPLTFGQGTKLEIKR
notes: Humanized antibody, human IgG1/kappa, expressed in 293E6 cells; also called humanized SNGmB1 variant C1L + C5H
In the case of B2, in test [2], binding was put at a Kd of 164 pM, the koff was 0.000122 s⁻¹ and the kon was determined as 744000 M⁻¹ s⁻¹.

B3: SNGHZD (C2L + C6H) (antibody, human IgG1, kappa, V domains shown)
VH: B2 VH with L81M
VL: B2 VL with P44A
notes: Humanized antibody, human IgG1/kappa; also called humanized SNGmB1 variant C2L + C6H
In test [2], B3 showed a Kd of 310 pM, a koff of 0.000398 s⁻¹ and a kon of 1.28e+06 M⁻¹ s⁻¹.

B4: SNGHZD (C1L + C6H) (antibody, human IgG1, kappa, V domains shown)
VH: B2 VH with L81M
VL: B2 VL
notes: Humanized antibody, human IgG1/kappa; also called humanized SNGmB1 variant C1L + C6H
Take B4: the “EC50 (read off the curve)” value in [3] was ~0.05 µg/mL. Besides, in test [2], the Kd turned out to be 105 pM, the koff worked out at 0.000302 s⁻¹ and the kon was 2.89e+06 M⁻¹ s⁻¹.

B5: SNGHZD (C3L + C6H) (antibody, human IgG1, kappa, V domains shown)
VH: B2 VH with L81M
VL: B2 VL with S64G
notes: Humanized antibody, human IgG1/kappa; also called humanized SNGmB1 variant C3L + C6H
On to B5, for which, in test [2], binding was characterised by a dissociation constant (Kd) of 271 pM, the koff amounted to 0.00036 s⁻¹ and the on-rate (kon) came out at 1.33e+06 M⁻¹ s⁻¹.

B6: SNGHZD (C3L + C5H) (antibody, human IgG1, kappa, V domains shown)
VH: B2 VH
VL: B2 VL with S64G
notes: Humanized antibody, human IgG1/kappa; also called humanized SNGmB1 variant C3L + C5H
As for B6, in [2], the Kd came to 100 pM, the off-rate constant (koff) came out at 0.000356 s⁻¹ and the kon worked out at 3.54e+06 M⁻¹ s⁻¹.

B7: SNGHZD (C2L + C5H) (antibody, human IgG1, kappa, V domains shown)
VH: B2 VH
VL: B2 VL with P44A
notes: Humanized antibody, human IgG1/kappa; also called humanized SNGmB1 variant C2L + C5H
As for B7, the “EC50 (read off the curve)” value in test [4] was ~0.04 µg/mL. Besides, in test [2], the equilibrium dissociation constant (Kd) came to 130 pM, the koff amounted to 0.000488 s⁻¹ and the association rate constant (kon) worked out at 3.46e+06 M⁻¹ s⁻¹.

B8: SNGmB1 antibody (antibody, mouse IgG2b, kappa)
light: ETTVTQSPASLSMTIGEKVTIRCITSTDIDDDMNWYRKKPGQPPKLLISEGNTLRPGVPSRFSSSGYGTDFVFTIENMLSEDVADYYCLQSDNLPLTFGAGTKLELKRADAAPTVSIFPPSSEQLTSGGASVVCFLNNFYPKDINVKWKIDGSERQNGVLNSWTDQDSKDSTYSMSSTLTLTKDEYERHNSYTCEATHKTSTSPIVKSFNRNEC
heavy: QAYLQQSGAELVRPGASVKMSCKASGYTFTSHNMHWIKQTPRQGLEWIGAIHPVNGDTAYNQKFKGKATLTVDKSSSTAYLQLSSLTSEESAVYFCAREGYGSVDYWGQGTTLTVSSAKTTPPSVYPLAPGCGDTTGSSVTLGCLVKGYFPESVTVTWNSGSLSSSVHTFPALLQSGLYTMSSSVTVPSSTWPSQTVTCSVAHPASSTTVDKKLEPSGPISTINPCPPCKECHKCPAPNLEGGPSVFIFPPNIKDVLMISLTPKVTCVVVDVSEDDPDVQISWFVNNVEVHTAQTQTHREDYNSTIRVVSTLPIQHQDWMSGKEFKCKVNNKDLPSPIERTISKIKGLVRAPQVYILPPPAEQLSRKDVSLTCLVVGFNPGDISVEWTSNGHTEENYKDTAPVLDSDGSYFIYSKLNMKTSKWEKTDSFSCNVRHEGLKNYYLKKTISRSPGK
notes: Mouse monoclonal antibody from a hybridoma, mIgG2b; Several lots were tested; also called HBD-B1; hybridoma derived SNGmB1
As to B8, the binding result in test [5] and in test [10] was “no binding (tested: 10 ug/ml)” each time. Moreover, in [6], the Kd was ~100 pM. In addition, the “IC50 (read off the curve)” value in [7] and in [8] was ~0.5 µg/mL throughout. In addition, the concentration giving a half-maximal response (EC50 (read off the curve)) was ~0.6 µg/mL in [9] and ~0.05 µg/mL in test [11]. Besides, the koff in [2] is 0.000129 s⁻¹ and 0.000319 s⁻¹. In addition, the kon in [2] was 2.12e+06 M⁻¹ s⁻¹ and 1.76e+06 M⁻¹ s⁻¹.
